Values quoted from earlier work in PMC3196573.
pKd: −log10 of the molar value.

Tests used:
ALK6 (Homo sapiens) = ALK6 (Homo sapiens) (UniProt O00238)
ALK3 (Homo sapiens) = ALK3 (Homo sapiens) (UniProt P36894)
Sequence of UniProt P36894 (P36894 24-152): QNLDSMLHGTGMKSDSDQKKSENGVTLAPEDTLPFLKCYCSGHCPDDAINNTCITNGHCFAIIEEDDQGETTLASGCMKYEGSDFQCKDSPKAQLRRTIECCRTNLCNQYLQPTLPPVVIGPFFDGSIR

Sequence of UniProt O00238 (O00238 14-126): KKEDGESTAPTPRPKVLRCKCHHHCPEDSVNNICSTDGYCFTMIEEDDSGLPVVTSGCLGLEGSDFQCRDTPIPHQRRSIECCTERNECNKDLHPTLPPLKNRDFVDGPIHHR

## BMP2 (from UniProt P12643)
ALK6 (Homo sapiens)
  pKd: 8.44
ALK3 (Homo sapiens)
  pKd: 9.05
